The results in this text go back to patent US20170051068A1 (Janssen / Centocor, published 2017).

As a reminder, the kon is a measure of how fast the partners come together. A word on the koff: it is the rate constant with which the complex falls apart. One may read the Kd as the free concentration of one partner at which half of the binding sites on the other are occupied at equilibrium, for simple one-to-one binding.

Test [1] addresses T1, Fc-fusion cyno BCMA (in-house; Cat# BCMW6.001) (cyno, UniProt Q02223 1-54 (human entry)).
T1 construct: also called Fc-BCMA Cy; cyno Fc-BCMA; not shown: Fc part
As to the kind of experiment: SPR, Fc-BCMA, two-state model, step 1 (kon1); first step (kon1).

Test [2] addresses T2, Recombinant human BCMA-Fc fusion protein (R&D Systems catalog #193-BC-050) (human, UniProt Q02223 1-54).
T2 construct: also called hBCMA-Fc; Fc-BCMA Hu; not shown: Fc part of the bought fusion protein
T2 sequence: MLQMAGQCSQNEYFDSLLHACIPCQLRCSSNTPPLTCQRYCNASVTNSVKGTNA
The test is described as above.

Test [3] addresses T1, Fc-fusion cyno BCMA (in-house; Cat# …). The test is described as follows: SPR, Fc-BCMA, two-state model, first complex. A general note: Surface plasmon resonance follows binding to a sensor surface in real time, without labels.
The target of test [4] is T2, Recombinant human BCMA-Fc fusion …. As to the kind of experiment: SPR, Fc-BCMA, two-state model, first complex.
Test [5] has as its target T1, Fc-fusion cyno BCMA (in-house; Cat# …). The test is described as follows: SPR, Fc-BCMA, two-state model, step 2.
The target in test [6] is T2, Recombinant human BCMA-Fc fusion …. As to the kind of experiment: SPR, Fc-BCMA, two-state model, step 2.
Test [7] addresses T1, Fc-fusion cyno BCMA (in-house; Cat# …). As to the kind of experiment: SPR, Fc-BCMA, two-state model, step 1 (koff1); first step (koff1).
Test [8] concerns the target T2, Recombinant human BCMA-Fc fusion …. Described as above.
Test [9] has as its target T1, Fc-fusion cyno BCMA (in-house; Cat# …). As to the kind of experiment: SPR, Fc-BCMA, two-state model, Final KD; Final complex KD, two-state model.
Test [10] has as its target T2, Recombinant human BCMA-Fc fusion …. Described as above.
Test [11] has as its target T3, monomeric human BCMA (human, UniProt Q02223 1-54, limits assumed).
T3 construct: also called monomeric BCMA antigen
T3 sequence: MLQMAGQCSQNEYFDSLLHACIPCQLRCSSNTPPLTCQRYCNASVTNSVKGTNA
The test is described as follows: SPR.

Test [12] concerns the target T3, monomeric human BCMA. As to the kind of experiment: SPR, monomeric human BCMA.

B1: BC3B8 (BCMA×CD3 bispecific antibody, BCMB123 × CD3B219) (bispecific antibody, human IgG4 S228P, lambda, F234A L235A)
heavy 1: EVQLVESGGGLVQPGGSLRLSCAASGFTFNTYAMNWVRQAPGKGLEWVARIRSKYNNYATYYAASVKGRFTISRDDSKNSLYLQMNSLKTEDTAVYYCARHGNFGNSYVSWFAYWGQGTLVTVSSASTKGPSVFPLAPCSRSTSESTAALGCLVKDYFPEPVTVSWNSGALTSGVHTFPAVLQSSGLYSLSSVVTVPSSSLGTKTYTCNVDHKPSNTKVDKRVESKYGPPCPPCPAPEAAGGPSVFLFPPKPKDTLMISRTPEVTCVVVDVSQEDPEVQFNWYVDGVEVHNAKTKPREEQFNSTYRVVSVLTVLHQDWLNGKEYKCKVSNKGLPSSIEKTISKAKGQPREPQVYTLPPSQEEMTKNQVSLTCLVKGFYPSDIAVEWESNGQPENNYKTTPPVLDSDGSFLLYSKLTVDKSRWQEGNVFSCSVMHEALHNHYTQKSLSLSLGK
light 1: QTVVTQEPSLTVSPGGTVTLTCRSSTGAVTTSNYANWVQQKPGQAPRGLIGGTNKRAPGTPARFSGSLLGGKAALTLSGVQPEDEAEYYCALWYSNLWVFGGGTKLTVLGQPKAAPSVTLFPPSSEELQANKATLVCLISDFYPGAVTVAWKADSSPVKAGVETTTPSKQSNNKYAASSYLSLTPEQWKSHRSYSCQVTHEGSTVEKTVAPTECS
heavy 2: not shown
light 2: SYVLTQPPSVSVAPGQTARITCGGNNIGSKSVHWYQQPPGQAPVVVVYDDSDRPSGIPERFSGSNSGNTATLTISRVEAGDEAVYYCQVWDSSSDHVVFGGGTKLTVLGQPKAAPSVTLFPPSSEELQANKATLVCLISDFYPGAVTVAWKADSSPVKAGVETTTPSKQSNNKYAASSYLSLTPEQWKSHRSYSCQVTHEGSTVEKTVAPTECS
notes: IgG4 made by Fab arm exchange; also called B123 × B219
With B1, the kon in [1] amounted to 1.09e+06 M⁻¹ s⁻¹; in test [2] it was 1.35e+06 M⁻¹ s⁻¹. Further, the KD1 in test [3] is 6.77 nM; in test [4], 0.91 nM. In addition, the koff2 in [5] came to 0.000326 s⁻¹; in [6] it was 0.000594 s⁻¹. For the same molecule, the kon2 in [5] came to 0.00194 s⁻¹; in test [6], 0.00313 s⁻¹. Besides, the koff in [7] stood at 0.00734 s⁻¹; in test [8], 0.00123 s⁻¹. The results for the Kd in [9] and in [10] were 0.97 nM and 0.14 nM, respectively.

B2: BC3B10 (BCMA×CD3 bispecific antibody, BCMB129 × CD3B219) (bispecific antibody, human IgG4 S228P, lambda, F234A L235A)
heavy 1: EVQLVESGGGLVQPGGSLRLSCAASGFTFNTYAMNWVRQAPGKGLEWVARIRSKYNNYATYYAASVKGRFTISRDDSKNSLYLQMNSLKTEDTAVYYCARHGNFGNSYVSWFAYWGQGTLVTVSSASTKGPSVFPLAPCSRSTSESTAALGCLVKDYFPEPVTVSWNSGALTSGVHTFPAVLQSSGLYSLSSVVTVPSSSLGTKTYTCNVDHKPSNTKVDKRVESKYGPPCPPCPAPEAAGGPSVFLFPPKPKDTLMISRTPEVTCVVVDVSQEDPEVQFNWYVDGVEVHNAKTKPREEQFNSTYRVVSVLTVLHQDWLNGKEYKCKVSNKGLPSSIEKTISKAKGQPREPQVYTLPPSQEEMTKNQVSLTCLVKGFYPSDIAVEWESNGQPENNYKTTPPVLDSDGSFLLYSKLTVDKSRWQEGNVFSCSVMHEALHNHYTQKSLSLSLGK
light 1: QTVVTQEPSLTVSPGGTVTLTCRSSTGAVTTSNYANWVQQKPGQAPRGLIGGTNKRAPGTPARFSGSLLGGKAALTLSGVQPEDEAEYYCALWYSNLWVFGGGTKLTVLGQPKAAPSVTLFPPSSEELQANKATLVCLISDFYPGAVTVAWKADSSPVKAGVETTTPSKQSNNKYAASSYLSLTPEQWKSHRSYSCQVTHEGSTVEKTVAPTECS
heavy 2: not shown
light 2: SYVLTQPPSVSVAPGQTARITCGGNNIGSKSVHWYQQPPGQAPVVVVYDDSDRPSGIPERFSGSNSGNTATLTISRVEAGDEAVYYCQVWDSSSDHVVFGGGTKLTVLGQPKAAPSVTLFPPSSEELQANKATLVCLISDFYPGAVTVAWKADSSPVKAGVETTTPSKQSNNKYAASSYLSLTPEQWKSHRSYSCQVTHEGSTVEKTVAPTECS
notes: IgG4 made by Fab arm exchange; also called B129 × B219
For the molecule B2, the kon came out at 930000 M⁻¹ s⁻¹ in test [1] and 1.02e+06 M⁻¹ s⁻¹ in [2]. The KD1 stood at 6.84 nM in test [3] and 1.5 nM in test [4]. In addition, the koff2 in test [5] amounted to 0.000359 s⁻¹; in [6], 0.000531 s⁻¹. Moreover, the kon2 worked out at 0.00165 s⁻¹ in test [5] and 0.00453 s⁻¹ in test [6]. The koff amounted to 0.00636 s⁻¹ in test [7] and 0.00155 s⁻¹ in test [8]. The Kd in test [9] worked out at 1.22 nM; in test [10] it was 0.16 nM.

B3: BCMB123 (antibody, human IgG4 S228P, lambda, F234A L235A, V domains shown)
VH: QLQLQESGPGLVKPSETLSLTCTVSGGSISSSSYFWGWIRQPPGKGLEWIGSIYYSGITYYNPSLKSRVTISVDTSKNQFSLKLSSVTAADTAVYYCARHDGAVAGLFDYWGQGTLVTVSS
VL: SYVLTQPPSVSVAPGQTARITCGGNNIGSKSVHWYQQPPGQAPVVVVYDDSDRPSGIPERFSGSNSGNTATLTISRVEAGDEAVYYCQVWDSSSDHVVFGGGTKLTVLG
notes: IgG4 S228P, L234A, L235A; also called BCBM123
Consider B3, for which the “fold weaker affinity than BCMB69” value in [11] lay in the range of 3 to 15 fold. Further, in [12], the affinity, expressed as Kd, was 5.12 nM; the koff is 0.011 s⁻¹; the kon was 2.14e+06 M⁻¹ s⁻¹.

B4: BCMB129 (antibody, human IgG4 S228P, lambda, F234A L235A, V domains shown)
VH: QLQLQESGPGLVKPSETLSLTCTVSGGSISSGSYFWGWIRQPPGKGLEWIGSIYYSGSTYYNPSLKSRVTISVDTSKNQFSLKLSSVTAADTAVYYCARHDGAVAGLFDYWGQGTLVTVSS
VL: SYVLTQPPSVSVAPGQTARITCGGNNIGSKSVHWYQQPPGQAPVVVVYDDSDRPSGIPERFSGSNSGNTATLTISRVEAGDEAVYYCQVWDSSSDHVVFGGGTKLTVLG
notes: IgG4 S228P, L234A, L235A; also called BCBM129
For B4, in test [12], the affinity, expressed as Kd, was 5.47 nM; the koff turned out to be 0.00843 s⁻¹; the kon is 1.54e+06 M⁻¹ s⁻¹.

B5: BCMB177 (antibody, human IgG4 S228P, lambda, F234A L235A, V domains shown)
VH: QLQLQESGPGLVKPSETLSLTCTVSGGSISSSSYFWGWIRQPPGKGLEWIGSIYYSGRTYYNPSLKSRVTISVDTSKNQFSLKLSSVTAADTAVYYCARHDGATAGLFDYWGQGTLVTVSS
VL: SYVLTQPPSVSVAPGQTARITCGGNNIGSKSVHWYQQPPGQAPVVVVYDDSDRPSGIPERFSGSNSGNTATLTISRVEAGDEAVYYCQVWDSSSDHVVFGGGTKLTVLG
notes: IgG4 S228P, L234A, L235A; also called BCBM177
Consider B5, for which the “fold weaker affinity than BCMB69” value in test [11] lay within 3 to 15 fold. In [12], this molecule displayed a Kd of 20.2 nM, an off-rate constant (koff) of 0.0566 s⁻¹ and a kon of 2.8e+06 M⁻¹ s⁻¹.

B6: BCMB128 (antibody, human IgG4 S228P, lambda, F234A L235A, V domains shown)
VH: QLQLQESGPGLVKPSETLSLTCTVSGGSISSGSYFWGWIRQPPGKGLEWIGSIYYSGITYYNPSLKSRVTISVDTSKNQFSLKLSSVTAADTAVYYCARHDGATAGLFDYWGQGTLVTVSS
VL: SYVLTQPPSVSVAPGQTARITCGGNNIGSKSVHWYQQPPGQAPVVVVYDDSDRPSGIPERFSGSNSGNTATLTISRVEAGDEAVYYCQVWDSSSDHVVFGGGTKLTVLG
notes: IgG4 S228P, L234A, L235A; also called BCBM128
In [12], B6 showed a Kd of 2.07 nM, a koff of 0.0087 s⁻¹ and a kon of 4.2e+06 M⁻¹ s⁻¹.

B7: BCMB176 (antibody, human IgG4 S228P, lambda, F234A L235A, V domains shown)
VH: QLQLQESGPGLVKPSETLSLTCTVSGGSISSSSYFWGWIRQPPGKGLEWIGSIYYSGITYYNPSLKSRVTISVDTSKNQFSLKLSSVTAADTAVYYCARHDGATAGLFDYWGQGTLVTVSS
VL: SYVLTQPPSVSVAPGQTARITCGGNNIGSKSVHWYQQPPGQAPVVVVYDDSDRPSGIPERFSGSNSGNTATLTISRVEAGDEAVYYCQVWDSSSDHVVFGGGTKLTVLG
notes: IgG4 S228P, L234A, L235A; also called BCBM176
Turning to B7, in test [12], the Kd was 7.18 nM, the koff is 0.0288 s⁻¹ and the on-rate constant (kon) is 4e+06 M⁻¹ s⁻¹.
